Experimental findings from PMC12282641 are described below.

A short description of data set [1]: multi-electrode array, rat cortical neurons. The note with it: glycan lost; control: WT-HK1.
A short description of data set [2]: GCaMP6s imaging, 100 AP 10 Hz. The note with it: glycan lost; control: WT-HK1-BFP.
Data set [3] in a line: fractionation blots for Aldo A, PGK, PKM2, HEK293T. As to conditions: glycan lost; control: WT-HK1 cells, response to OGT + Thiamet-G.
Data set [4] is described as follows: iATPSnFR1.0 imaging, hippocampal neurons, 100 AP 10 Hz. As to conditions: glycan lost; control: WT-HK1-BFP.
Data set [5] in a line: anti-HK1 blot of HEK293T lysates. As to conditions: glycan lost; control: WT-HK1.
Data set [6] is described as follows: HYlight FBP sensor, axons, 100 AP 10 Hz. As to conditions: glycan lost; control: WT-HK1-FLAG.

B1: Hexokinase 1 (HK1): T259A (protein)
parent chain: MIAAQLLAYYFTELKDDQVKKIDKYLYAMRLSDETLIDIMTRFRKEMKNGLSRDFNPTATVKMLPTFVRSIPDGSEKGDFIALDLGGSSFRILRVQVNHEKNQNVHMESEVYDTPENIVHGSGSQLFDHVAECLGDFMEKRKIKDKKLPVGFTFSFPCQQSKIDEAILITWTKRFKASGVEGADVVKLLNKAIKKRGDYDANIVAVVNDTVGTMMTCGYDDQHCEVGLIIGTGTNACYMEELRHIDLVEGDEGRMCINTEWGAFGDDGSLEDIRTEFDREIDRGSLNPGKQLFEKMVSGMYLGELVRLILVKMAKEGLLFEGRITPELLTRGKFNTSDVSAIEKNKEGLHNAKEILTRLGVEPSDDDCVSVQHVCTIVSFRSANLVAATLGAILNRLRDNKGTPRLRTTVGVDGSLYKTHPQYSRRFHKTLRRLVPDSDVRFLLSESGSGKGAAMVTAVAYRLAEQHRQIEETLAHFHLTKDMLLEVKKRMRAEMELGLRKQTHNNAVVKMLPSFVRRTPDGTENGDFLALDLGGTNFRVLLVKIRSGKKRTVEMHNKIYAIPIEIMQGTGEELFDHIVSCISDFLDYMGIKGPRMPLGFTFSFPCQQTSLDAGILITWTKGFKATDCVGHDVVTLLRDAIKRREEFDLDVVAVVNDTVGTMMTCAYEEPTCEVGLIVGTGSNACYMEEMKNVEMVEGDQGQMCINMEWGAFGDNGCLDDIRTHYDRLVDEYSLNAGKQRYEKMISGMYLGEIVRNILIDFTKKGFLFRGQISETLKTRGIFETKFLSQIESDRLALLQVRAILQQLGLNSTCDDSILVKTVCGVVSRRAAQLCGAGMAAVVDKIRENRGLDRLNVTVGVDGTLYKLHPHFSRIMHQTVKELSPKCNVSFLLSEDGSGKGAALITAVGVRLRTEASS
Regarding B1, the “other: neuronal network activity” value in data set [1] is listed as “decreases”. The “other: presynaptic calcium dynamics” value in data set [2] was “no change”. In addition, the “other: glycolytic enzyme recruitment to mitochondria” value in data set [3] is “abolishes”. For the same protein, the “other: axonal ATP recovery after stimulation” value in data set [4] is “abolishes”. Moreover, the expression_or_secretion entry in data set [5] is listed as “no change”. Moreover, the “other: activity-evoked glycolysis (FBP level)” value in data set [6] is “abolishes”.
